{
  "source": "patent US5834184A",
  "about": "“In vivo selection of RNA-binding peptides” (priority 1995, dated 1998)",
  "molecules": {"B1": {"name": "N: wild-type phage λ N antiterminator protein (protein, UniProt P03045 1-107, looked up)", "Antitermination protein N": "MDAQTRRRERRAEKQAQWKAANPLLVGVSAKPVNRPILSLNRKPKSRVESALNPIDLTVLAEYHKQIESNLQRIERKNQRTWYSKPGERGITCSGRQKIKGKSIPLI"}},
  "key": {"[1]": {"assay": "Circular dichroism, helical content of synthetic peptides", "type": "physicochemical", "settings": "estimated from ellipticity at 222 nm; 10 mM potassium phosphate pH 7.5, 100 mM KF, 4° C. (FIG. 4B)", "procedure": "FIG. 4B: Circular dichroism spectra of Rev34-40 (.box-solid.), Rev34-47 (S34) (.smallcircle.), Rev-like peptide clone 24 (.quadrature.), clone 57 peptide (.circle-solid.), and clone 41 peptide (.diamond.).\nCircular dichroism was used to assess whether the selected peptides adopted α-helical conformations. Circular dichroism spectra were measured using an Aviv model 62DS spectropolarimeter. Samples were prepared in 10 mM potassium phosphate buffer, pH 7.5 and 100 mM KF. Spectra were recorded using a 1 cm pathlength cuvette at 4° C. and signal was averaged for 5 sec at each wavelength. Scans were repeated five times and averaged."}, "BIV TAR": {"system": "BIV TAR", "assay": "Antitermination assay (β-galactosidase reporter in E. coli), BIV TAR reporter", "type": "cell-based", "parameters": "key to X-gal: +++++, 200 units β-galactosidase/1 OD600 unit cells; ++++, 100-200 units; +++, 10-100 units; ++, 2-10 units; +, 1-10 units; -, background", "settings": "BIV TAR reporter (Table 1)", "from_the_text": "(§1) Synthetic oligonucleotide cassettes encoding HIV Rev (ma[…]-aaaan) (SEQ ID NO: 26), BIV Tat (mg[…]gggn) (SEQ ID NO: 27), and HIV Tat ([…]) (SEQ ID NO: 28) peptides were cloned into the unique BsmI and NcoI sites of pBRptacN^* (Franklin, J. Mol Biol 231, 343 (1993)), creating fusion proteins at amino acid 20 of the λ N protein. The sequence encoding the fusion protein was linked to a tac promoter.\n(§2) A second pACYC-derived vector was constructed encoding a tac promoter linked to the phage λ termination site Nut and a β-galactosidase structural gene. […]\n(§3) Plasmids were transformed into E. coli strain N567 (Franklin & Doelling, J. Bacteriol. 171, 2513 (1989)) and bacteria were grown on LB plates or in tryptone broth containing 50 mg/l ampicillin and/or 15 mg/l chloramphenicol. In the β-galactosidase colony color assay, the number of +s represents visual estimation of blue intensity after growing colonies on plates containing 0.08 mg/ml X-gal and 0.024 mg/ml IPTG (to induce the tac promoters) for ~48 hr at 34° C. β-galactosidase activity was also measured in permeabilized cells using an ONPG colorimetric assay (Sambrook et al. Molecular Cloning (Cold Spring Harbor Laboratory Press, Cold Spring Harbor, 1989)). […]"}, "[2]": {"system": "Nut^- (a Nut site deletion) reporter", "assay": "Antitermination assay (β-galactosidase reporter in E. coli), Nut^- reporter", "type": "cell-based, phage λ", "parameters": "key to X-gal: +++++, 200 units β-galactosidase/1 OD600 unit cells; ++++, 100-200 units; +++, 10-100 units; ++, 2-10 units; +, 1-10 units; -, background", "from_the_text": "as §1, §2, §3"}, "HIV RRE": {"system": "HIV RRE", "assay": "Antitermination assay (β-galactosidase reporter in E. coli), HIV RRE reporter", "type": "cell-based", "parameters": "key to X-gal: +++++, 200 units β-galactosidase/1 OD600 unit cells; ++++, 100-200 units; +++, 10-100 units; ++, 2-10 units; +, 1-10 units; -, background", "settings": "HIV RRE reporter (Table 1)", "from_the_text": "as §1, §2, §3"}, "[3]": {"system": "Nut reporter (λ Nut site, Box B)", "assay": "Antitermination assay (β-galactosidase reporter in E. coli), Nut reporter", "type": "cell-based, phage λ", "from_the_text": "as §1, §2, §3"}, "HIV TAR": {"system": "HIV TAR", "assay": "Antitermination assay (β-galactosidase reporter in E. coli), HIV TAR reporter", "type": "cell-based", "parameters": "key to X-gal: +++++, 200 units β-galactosidase/1 OD600 unit cells; ++++, 100-200 units; +++, 10-100 units; ++, 2-10 units; +, 1-10 units; -, background", "from_the_text": "as §1, §2, §3"}, "[4]": {"settings": "colony colour on X-gal/IPTG plates"}, "[5]": {"settings": "permeabilized cells, 1 hr IPTG induction"}},
  "data": [
    {"molecule": "14 amino acid wild-type Rev peptide: synthetic 14 amino acid Rev peptide, succinyl capped, four alanines and amide at the C-terminus", "values": [
      {"measurement": "helical content", "setting": "[1]", "result": 11, "unit": "%"}
    ]},
    {"molecule": "B1", "values": [
      {"measurement": "X-gal", "setting": "BIV TAR; [4]", "result": "-"},
      {"measurement": "ONPG", "setting": "BIV TAR; permeabilized cells", "result": "2.9 units β-galactosidase/1 OD600"},
      {"measurement": "X-gal", "setting": "[2]; colony colour on X-gal/IPTG plates ~48 hr at 34° C., E. coli N567", "result": "-"},
      {"measurement": "ONPG", "setting": "[2]; [5]", "result": "1.9 units β-galactosidase/1 OD600"},
      {"measurement": "X-gal", "setting": "HIV RRE; [4]", "result": "-"},
      {"measurement": "ONPG", "setting": "HIV RRE; permeabilized cells", "result": "2.5 units β-galactosidase/1 OD600"},
      {"measurement": "X-gal", "setting": "[3]; colony colour on X-gal/IPTG plates ~48 hr at 34° C.", "result": "+++++ (+++++, 200 units β-galactosidase/1 OD600 unit cells)"},
      {"measurement": "ONPG", "setting": "[3]; [5]", "result": "1020 units β-galactosidase/1 OD600"},
      {"measurement": "X-gal", "setting": "HIV TAR; [4]", "result": "-"},
      {"measurement": "ONPG", "setting": "HIV TAR; permeabilized cells", "result": "2.4 units β-galactosidase/1 OD600"}
    ]}
  ]
}
